{
  "source": "the RNAGym collection of RNA variant scans (doi:10.1073/pnas.2313332121)",
  "parents": {"B1": {"name": "TPR 5TU (parent)", "chain": "GGAUCUUCUCGAUCUAACAAAAAAGACAAAUCUGCCACAAAGCUUGAGAGCAUCUUCGGAUGCAGAGGCGGCAGCCUUCGGUGGCGCGAUAGCGCCAACGUUCUCAACUAUGACACGCAAAACGCGUGCUCCGUUGAAUGGAGUUUAUCAUG"}},
  "note": "Variants at the floor of the assay were thinned out.",
  "data": [
    {"variants_of": "B1", "assay": "polymerase ribozyme fitness, log enrichment relative to wild type (log ratio); higher = more active; in vitro selection for triplet polymerase activity", "outline": "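Mutant libraries of each subunit of a heterodimeric triplet polymerase ribozyme were built by PCR and transcribed. Each library went through one round of in vitro selection in triplicate: annealing with biotinylated primer, partner subunit and triplets, frozen incubation at −7 °C, gel excision of extended constructs, streptavidin-bead capture and RT-PCR. Input and output libraries were Illumina-sequenced; only genotypes with ≥10 input reads and ≥1 read per output were kept. Fitness is log2(genotype enrichment/wild-type enrichment), using inverse-variance-weighted replicate averages.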", "values": [
      {"variant": "GGAUCUUCUCGAUCUAACAAAAAAGACAAAUCUGCCACAAAGCUUGAGAGCAUGUUCGGAUGCAGAGGCGGCAGCCUUCGGUGGCGAGAUAGCGCCAACGUUCUCAACUAUGACACGCAAAACGCGUGCUCCGUUGAAUGGAGUUUAUCAUG", "note": "[C54G C87A]", "polymerase ribozyme fitness (log ratio)": "≤ -4.2"},
      {"variant": "GGAUCUUCUCGAUCUAACAAAAAAGACAAAUCUGCCACAAAGCUUGAGAGCAUGUUCGGAUGCAGAGGCGGCAGCCUUCGGUGGCGUGAUAGCGCCAACGUUCUCAACUAUGACACGCAAAACGCGUGCUCCGUUGAAUGGAGUUUAUCAUG", "note": "[C54G C87U]", "polymerase ribozyme fitness (log ratio)": -3.59},
      {"variant": "GGAUCUUCUCGAUCUAACAAAAAAGACAAAUCUGCCACAAAGCUUGAGAGCAUGUUCGGAUGCAGAGGCGGCAGCCUUCGGUUGCGCGAUAGCGCCAACGUUCUCAAUUAUGACGCGCAAAACGCGUGCUCCGUUGAAUGGAAUUUAUCAUG", "note": "[C54G G83U C108U A115G G143A]", "polymerase ribozyme fitness (log ratio)": "≤ -4.2"},
      {"variant": "GGAUCUUCUCGAUCUAACAAAAAAGACAAAUCUGCCACAAAGCUUGAGAGCAUGAUCGGAUGCAGAGGCGGCAGCCUUCGGUGGCGCGUUAGCGCCAACGUUCUCAACUAUGACACGGAAAACGCGUGCUCCGUUGAAUGGCGUUUAUCAUG", "note": "[C54G U55A A89U C118G A142C]", "polymerase ribozyme fitness (log ratio)": -3.87},
      {"variant": "GGAUCUUCUCGAUCUAACAAAAAAGACAAAUCUGCCACAAAGCUUGAGAGCAUGUUCGGAUGCAGAGGCGGCAGCCUUCGGUGUCGCGAUAGCGCCAACGUUCUCAACUAUGACACGCAAAACGCGUGCUCCGUUGAAUGGAGUUUAUCAUG", "note": "[C54G G84U]", "polymerase ribozyme fitness (log ratio)": -1.6},
      {"variant": "GGAUCUUCUCGAUCUAACAAAAAAGACAAAUCUGCCACAAAGCUUGAGAGCAUGUUCGGAUGCAGAGGCGGCAGCCUUCGGUGGCGGGAUAGCGCCAACGUUAUCAACUAUGACACGCAAAACGCGUGGUCUGUUGAAUGGAGUUUAUCAUG", "note": "[C54G C87G C103A C129G C132U]", "polymerase ribozyme fitness (log ratio)": "≤ -4.2"},
      {"variant": "GGAUCUUCUCGAUCUAACAAAAAAGACAAAUCUGCCACAAAGCUUGAGAGCAUGUUCGGAUGCAGAGGCGGCAGCCUUCGGUGGCGCGAUACCGCCAACGUUCUCGACUAUGACACGCAAAACGCGUGCUCCGUUGAAUGGAGUUUAUCAUG", "note": "[C54G G92C A106G]", "polymerase ribozyme fitness (log ratio)": -2.99},
      {"variant": "GGAUCUUCUCGAUCUAACAAAAAAGACAAAUCUGCCACAAAGCUUGAGAGCAUGUUCGGAUGCAGAGGCGGCACCCUUCGAUGGCGCCAUAGCGCCAACGUUCUCAACUAUGACACGCAAAACGCGUGCUCCGUUGAAUGGAGUUUAUCAUG", "note": "[C54G G74C G81A G88C]", "polymerase ribozyme fitness (log ratio)": "≤ -4.2"},
      {"variant": "GGAUCUUCUCGAUCUAACAAAAAAGACAAAUCUGCCACAAAGCUUGAGAGCAUGUUCCGAUGCAGAGGCGGCAGCCUUCGGUGGCGCGAUAGCGCCAACGUUCUCAACUAUGACACGCAAAGCUCGUGCUCCGUUGAAUGGAGUUUAUCAUG", "note": "[C54G G58C A122G G124U]", "polymerase ribozyme fitness (log ratio)": -2.2},
      {"variant": "GGAUCUUCUCGAUCUAACAAAAAAGACAAAUCUGCCACAAAGCUUGAGAGCAUGUUCGGAUGCAGAGGCGGCAGCCUUCGGUGGCGCGAUAGCGCCAACGUUCUCAACUAUGACACGCAAAACGCGUGCUCCGUUGAAUAGAGUUAAUCAUG", "note": "[C54G G140A U146A]", "polymerase ribozyme fitness (log ratio)": "≤ -4.2"},
      {"variant": "GGAUCUUCUCGAUCUAACAAAAAAGACAAAUCUGCCACAAAGCUUGAGAGCAUGUUCGGAUGCAGAGGCGGCAGCCUUCGGUGGCGCGAUAGCUCCAACGUUCUCAACUAUGACACGCAAAAUGCGUGCUCCCUUGAAUGGAGUUUAUCAUG", "note": "[C54G G94U C123U G133C]", "polymerase ribozyme fitness (log ratio)": -2.38},
      {"variant": "GGAUCUUCUCGAUCUAACAAAAAAGACAAAUCUGCCACAAAGCUUGAGAGCAUGUUCGGAUGCAGAGGCGGCAGCCUUCGGUGGCGCGAUAGCGACAACGUUCUCAACUAUGACACGCAAAACGCGUGCUCCGUUGAAUGGAGUUUAUCAUG", "note": "[C54G C95A]", "polymerase ribozyme fitness (log ratio)": -1.74},
      {"variant": "GGAUCUUCUCGAUCUAACAAAAAAGACAAAUCUGCCACAAAGCUUGAGAGCAUGUUCGGAUGCAGAGGCGGCAGCCUUCGGUGGCGCGAUAGCGUCAACGUUCUCAACUAUGACACGCAAAACGCGUGCUCCGUUGAAUGGAGUUUAUCAUG", "note": "[C54G C95U]", "polymerase ribozyme fitness (log ratio)": -2.35},
      {"variant": "GGAUCUUCUCGAUCUAACAAAAAAGACAAAUCUGCCACAAAGCUUGAGAGCAUGUUCGGAUGCAGAGGCGGCAGCCUUCGGUGGCGCGAUAGCGUCAACGUUCUCAACUAUGACACGCAAAACGCGGGCUCCGUUGAAUGGAGUUUAUCAUG", "note": "[C54G C95U U127G]", "polymerase ribozyme fitness (log ratio)": "≤ -4.2"},
      {"variant": "GGAUCUUCUCGAUCUAACAAAAAAGACAAAUCUGCCACAAAGCUUGAGAGCAUGUUCGGAUGCAGAGGCGGCAGCCUUCGGUGGCGCGAUAGCGCGAACGUUCUCAACUAUGACACGCAAAACGCAUGCUCCGUUGAAUGGAGUUUAUCAUG", "note": "[C54G C96G G126A]", "polymerase ribozyme fitness (log ratio)": -2.33},
      {"variant": "GGAUCUUCUCGAUCUAACAAAAAAGACAAAUCUGCCACAAAGCUUGAGAGCAUGUUCGGAUGCAGAGGCGGCAGCCUUCGGUGGCGCGAUAGCGCCAACGUUGUCAACUAUGACACGCAAAACGCGUGCUCCGUUGAAUGGAGUUUAUCAUG", "note": "[C54G C103G]", "polymerase ribozyme fitness (log ratio)": "≤ -4.2"},
      {"variant": "GGAUCUUCUCGAUCUAACAAAAAAGACAAAUCUGCCACAAAGCUUGAGAGCAUGAUCGGAUGCAGAGGCGGCAGCCUUCGGUGGCGCGAUAGCGCCAACGUUCUCAAGUAUGACACGCAAAUCGCGUGCUCCGUUGAAUGGAGUUUAUCAUG", "note": "[C54G U55A C108G A122U]", "polymerase ribozyme fitness (log ratio)": "≤ -4.2"},
      {"variant": "GGAUCUUCUCGAUCUAACAAAAAAGACAAAUCUGCCACAAAGCUUGAGAGCAUGUUCGGAUGCAGAGGCGGCAGCCUUCGGUGGUGCGAUAGCGCCAAGGUUCUCAACUAUGACACGCAAAACGCGUGCUCCGUUGAAUGGAGUUUAUCAUG", "note": "[C54G C85U C99G]", "polymerase ribozyme fitness (log ratio)": -3.45},
      {"variant": "GGAUCUUCUCGAUCUAACAAAAAAGACAAAUCUGCCACAAAGCUUGAGAGCAUGUUCGGAUGCAGAGGCGGCAGCCUUCUGUGGCGCGAUAGCGCCAACGUUCUCAACUAUGACACGCAAAACGCGUGCUCCGUUGAAUGGAGUUUAUCAUG", "note": "[C54G G80U]", "polymerase ribozyme fitness (log ratio)": -3.52}
    ]}
  ]
}
